Reference: US20250295799A1 (Zymeworks, published 2025)

Key:
human GPC3 on cells [1] = target: T1, human GPC3 on cells (human, UniProt P51654 25-554); experiment: flow cytometry, HepG2 cells
T1 construct: GPI-anchored protein on transfected CHO-S cells, on human tumor cell lines or on HEK293T cells; the cell is named under assay; also called human GPC3 on CHO-S transfected cells; HuGPC3-CHO
Description: (§1) Briefly, cells were seeded at 50,000 cells/well in V-bottom 96-well plates and treated with antibody for 24 hours at 4° C. to prevent internalization. […] Following incubation and washing, fluorescence was detected by flow cytometry on a BD LSRFortessa™ Cell Analyzer (BD Biosciences, Franklin Lake, NJ) with 1,000 minimum events collected per well. AF647/APC-A GeoMean (fluorescence signal geometric mean, proportional to anti-Human AF647 binding) in live cell population was plotted against antibody concentration using GraphPad Prism Version 9 (GraphPad Software, San Diego, CA). The Bmax, Curve Hill Slope (h) and Kd values were derived from the “Specific binding with Hill slope” nonlinear regression curve fit in GraphPad Prism Version 9.

human GPC3 on cells [2] = target: T1, human GPC3 on cells; experiment: flow cytometry, JHH-7 cells
Description: as §1

human GPC3 on cells [3] = target: T1, human GPC3 on cells; experiment: flow cytometry on HepG2 cells (GPC3-high), 24 h at 4 C, anti-human IgG Fc AF647
Description: as §1

[4] = target: KLH (Sigma-Aldrich, H8283); experiment: NS-ELISA, plate coated with KLH, antibody at 100 nM
Description: 50 μL each of insulin, KLH, dsDNA and ssDNA were added to a 96 well plate, followed by the incubation at 37° C. for 2 h. The coating materials were removed, and the plate was blocked with 200 μL of Gibco™ PBS pH7.4, 0.1% Tween®20, and incubated for 1 h at room temperature with shaking at 200 rpm. The plate was washed 3 times with Gibco™ PBS pH7.4, 0.1% Tween 20. 50 μL of each mAb at 100 nM (15 mg/mL) in Gibco™ PBS pH 7.4, 0.1% Tween®20 was added in duplicate to the wells and incubated for 1 h at room temperature with shaking at 200 rpm. Plates were washed three times with Gibco™ PBS pH7.4, 0.1% Tween 20, and 50 μL of 50 ng/mL anti-human IgG HRP (Thermofisher Scientific©, H₁₀₃₀₇) was added to each well. Plates were incubated for 1 h at room temperature, with shaking at 200 rpm. The plate was washed three times with Gibco™ PBS pH7.4, 0.1% Tween 20, and 100 μL of TMB substrate (Cell Signaling Technology©, 7004P6) added to each well. […] Binding scores were calculated as the ratio of the ELISA signal of the antibody to the signal of a well containing buffer instead of the primary antibody. The cutoffs considered for each binding molecule (ssDNA. KLH, Insulin, dsDNA and Heparin) were internally calculated.

human GPC3 on cells [5] = target: T1, human GPC3 on cells; experiment: flow cytometry on JHH-7 cells (GPC3-high), 24 h at 4 C, anti-human IgG Fc AF647
Description: as §1

human GPC3 on cells [6] = target: T1, human GPC3 on cells; experiment: cell-based or functional assay
[7] = target: T2, recombinant cynomolgus GPC3 (ACROBiosystems) (cynomolgus monkey, UniProt A5A6P7 25-559 (Pan troglodytes entry), limits assumed); experiment: SPR, antibody captured on anti-Fc, GPC3 injected, 1:1 fit
T2 construct: bought antigen of the SPR assays; also called cynoGPC3
Description: (§2) Antigens: recombinant human and cynomolgus GPC3 was purchased from ACROBiosystems (Newark, DE) and SEC purified on a Superdex 200 10/300 GL column (Cytiva) in PBST running buffer at 0.8 mL/min.
(§3) Screening of the antibodies for binding to GPC3 antigen was conducted via anti-Fc capture of antibodies, followed by the injection of five concentrations of GPC3. The anti-Fc surface was prepared on a CM5 Series S sensor chip by standard amine coupling methods as described by the manufacturer (Cytiva Life Sciences, Mississauga, ON, Canada). […] Approximately 500-600 RUs of each antibody (1-3 μg/mL) were captured on the goat anti-human IgG surface by injecting at 10 μL/min for 60s. Using single-cycle kinetics, five concentrations of a two-fold dilution series of human or cynomolgus GPC3 starting at 40 nM (or 20 nM) with a blank buffer control were injected at 40 μL/min for 180s of contact time, followed by 180 s (or 300 s) dissociation phase, resulting in sensorgrams with a buffer blank reference. The anti-Fc surface was regenerated to prepare for the next injection cycle by one pulse of 10 mM glycine/HCl pH 1.5 for 180 s at 40 μL/min. Blank-subtracted sensorgrams were analyzed using Biacore™ T200 Evaluation Software v3.0. The blank-subtracted sensorgrams were then fit to the 1:1 Langmuir binding model.

[8] = target: T3, recombinant human GPC3 (ACROBiosystems) (human, UniProt P51654 25-559); experiment: as above
T3 construct: bought antigen of the SPR assays, SEC purified; also called huGPC3; hGPC3
Description: as §2, §3

[9] = target: T3, recombinant human GPC3 (ACROBiosystems); experiment: SPR; Kd on huGPC3 over Kd on cynoGPC3
Description: as §2, §3

human GPC3 on cells [10] = target: T1, human GPC3 on cells; experiment: flow cytometry, JHH-7 cells; apparent Kd
Description: as §1

human GPC3 on cells [11] = target: T1, human GPC3 on cells; experiment: flow cytometry, HepG2 cells; apparent Kd
Description: as §1

[12] = target: T3, recombinant human GPC3 (ACROBiosystems); experiment: SPR
[13] = target: T4, cynomolgus monkey GPC3 on CHO-S transfected cells (cynomolgus monkey, UniProt A5A6P7 25-554 (Pan troglodytes entry)); experiment: flow cytometry, CHO-S cells transfected with cynomolgus monkey GPC3; apparent Kd
T4 construct: transient expression from a pTT5-based plasmid; also called CHO-S Cyno GPC3; CynoGPC3-CHO
Description: (§4) Briefly, CHO—S cells were transiently transfected for −24 hours with a pTT5-based expression plasmid encoding human GPC3 or cynomolgus monkey GPC3, 0.5 μg DNA per 1 million cells, using the Neon™ Transfection System (Thermo Fisher Scientific Corp., Waltham, MA), to transiently express human or cynomolgus monkey GPC3. Following transfection, cells were seeded at 50,000 cells/well in V-bottom 96-well plates and treated with antibody for 24 hours at 4° C. to prevent internalization. […] Following incubation and washing, fluorescence was detected by flow cytometry on a BD LSRFortessa™ Cell Analyzer (BD Biosciences, Franklin Lake, NJ) with 1,000 minimum events collected per well. AF647/APC-A GeoMean (fluorescence signal geometric mean, proportional to anti-Human AF647 binding) in live cell population was plotted against antibody concentration using GraphPad Prism Version 9 (GraphPad Software, San Diego, CA). The Bmax and Kd values were derived from the “Specific binding with Hill slope” nonlinear regression curve fit in GraphPad Prism Version 9.

human GPC3 on cells [14] = target: T1, human GPC3 on cells; experiment: flow cytometry, CHO-S cells transfected with human GPC3; apparent Kd
Description: as §4

human GPC3 on cells [15] = target: T1, human GPC3 on cells; experiment: flow cytometry, JHH-5 cells
human GPC3 on cells [16] = target: T1, human GPC3 on cells; experiment: flow cytometry, JHH-7 cells; remark: listed apart in the source
FcgR1A = target: T5, FcgR1A (human, UniProt P12314 16-374); experiment: Membrane Proteome Array: high-throughput flow cytometry on unfixed HEK293T cells, each well expressing one human membrane protein; antibody at 1.25 ug/mL; the text ascribes this to the Fc portion
T5 construct: whole, on cells
Description: Briefly, the study consisted of three phases: phase (1) determination of assay screening conditions, phase (2) membrane proteome array (library) screen and phase (3) protein target validation. […] In phase (3), each protein target hit from the screen stage (potential off-target interactions) was assessed in titration experiment using flow cytometry.

human GPC3 on cells [17] = target: T1, human GPC3 on cells; experiment: flow cytometry on HepG2 cells (GPC3-high), 24 h at 4 C, anti-human IgG Fc AF647; remark: listed apart in the source
Description: (§5) Cell lines investigated included GPC3-hi HepG2 and JHH-7 cells, GPC3-mid JHH-5 cells, as well as GPC3-negative SNU-601 cells.
as §1

human GPC3 on cells [18] = target: T1, human GPC3 on cells; experiment: flow cytometry on CHO-S cells transiently transfected with human GPC3, 24 h at 4 C, anti-human IgG Fc AF647
Description: as §4

human GPC3 on cells [19] = target: T1, human GPC3 on cells; experiment: flow cytometry on JHH-7 cells (GPC3-high), 24 h at 4 C, anti-human IgG Fc AF647; remark: listed apart in the source
Description: as §5, §1

human GPC3 on cells [20] = target: T1, human GPC3 on cells; experiment: flow cytometry on JHH-5 cells (GPC3-mid), 24 h at 4 C, anti-human IgG Fc AF647
Description: as §5, §1

T5 sequence (P12314 16-374): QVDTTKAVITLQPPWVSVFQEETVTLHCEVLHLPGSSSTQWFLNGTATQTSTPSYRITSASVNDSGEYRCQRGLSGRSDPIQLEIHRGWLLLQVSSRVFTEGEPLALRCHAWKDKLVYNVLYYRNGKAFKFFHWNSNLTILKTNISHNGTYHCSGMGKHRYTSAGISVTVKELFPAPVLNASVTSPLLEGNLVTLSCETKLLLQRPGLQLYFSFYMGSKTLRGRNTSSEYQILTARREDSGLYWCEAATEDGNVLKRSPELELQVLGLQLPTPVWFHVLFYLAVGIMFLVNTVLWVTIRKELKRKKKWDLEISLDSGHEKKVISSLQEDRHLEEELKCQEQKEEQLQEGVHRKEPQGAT

Row | Binder | Bmax (human GPC3 on cells [1]) | Bmax (human GPC3 on cells [2]) | EC50 (read off the curve) (human GPC3 on cells [3]) [nM] | NS-ELISA binding score [4] | EC50 (read off the curve) (human GPC3 on cells [5]) [nM] | internalized fluorescence, fold increase over palivizumab, Hep G2, 5 hours, 10 nM (human GPC3 on cells [6]) [fold] | internalized fluorescence, fold increase over palivizumab, Hep G2, 24 hours, 10 nM (human GPC3 on cells [6]) [fold] | internalized fluorescence, fold increase over palivizumab, JHH-7, 5 hours, 10 nM (human GPC3 on cells [6]) [fold] | internalized fluorescence, fold increase over palivizumab, JHH-7, 24 hours, 10 nM (human GPC3 on cells [6]) [fold] | Kd [7] [nM] | Kd [8] [nM] | Fold difference (hu/cyno) [9] [fold] | Kd (human GPC3 on cells [10]) [nM] | Kd (human GPC3 on cells [11]) [nM] | also measured
1 | v36180 (M3-H1L1) (antibody, human IgG1, kappa, V domains shown, humanized full-size IgG1 (IGHG1*01)/kappa antibody; heavy chain ends at G446 (EU); also called M3-HIL1) VH: EVQLVQSGAEVKKPGSSVKVSCKASGYTFTDYEMHWVRQAPGQGLEWIGAIDPETGDTAYNQKFKGRATLTADKSTSTAYMELSSLRSEDTAVYYCTRYFSFAYWGQGTLVTVSS VL: DVQMTQSPSSVSASVGDRVTITCRSSQSLRHSNGNTYLQWYQQKPGKAPKLLIYKVSNRFSGVPSRFSGSGSGTDFTLTISSLQPEDFATYFCYQSKHVPYTFGQGTKVEIKR | 40000 | 9340 | ~0.9 | 5.45 ratio to buffer well | ~0.3 | 17 | 66.2 | 8.6 | 46.4 | 9.67 | 10.5 | 1.1 | 0.25 | 0.91 | –
2 | v37575 (codrituzumab) (antibody, human IgG1, kappa, V domains shown, also called GC33; RG-7686) VH: QVQLVQSGAEVKKPGASVKVSCKASGYTFTDYEMHWVRQAPGQGLEWMGALDPKTGDTAYSQKFKGRVTLTADKSTSTAYMELSSLTSEDTAVYYCTRFYSYTYWGQGTLVTVSS VL: DVVMTQSPLSLPVTPGEPASISCRSSQSLVHSNRNTYLHWYLQKPGQSPQLLIYKVSNRFSGVPDRFSGSGSGTDFTLKISRVEAEDVGVYYCSQNTHVPPTFGQGTKLEIKR | 42300 | 9000 | ~1 | 1.11 ratio to buffer well | ~0.3 | 14.4 | 57.2 | 8.5 | 46.7 | 0.91 | 0.91 | 1 | 0.26 | 1.2 | fold higher affinity than M3-H18L6 [12]: ~10 fold; Kd [13]: 0.98 nM; Kd (human GPC3 on cells [14]): 1.23 nM
3 | v40213 (H18L6_LC_N33E mAb) (antibody, human IgG1, kappa, V domains shown, as for v40203) VH: QVQLVQSGAEVKKPGSSVKVSCKASGYTFTDYEMHWVKQAPGHGLEWIGAIDPETGDTAYNQKFKGKATLTADTSTSTAYMELSSLRSEDTAVYYCTRYFSFAYWGQGTLVTVSS VL: EIVLTQSPATLSLSPGERATISCRSSQSLRHSEGNTYLQWYQQKPGQAPRLLIYKVSNRFSGVPARFSGSGSGTDFTLTISSLEPEDFAVYFCYQSKHVPYTFGGGTKVEIKR | – | – | – | – | – | – | – | – | – | – | – | – | – | – | fold increase in Kd from wild-type (human GPC3 on cells [15]): ~29 fold
4 | v40215 (H18L6_LC_N33V mAb) (antibody, human IgG1, kappa, V domains shown, as for v40203) VH: QVQLVQSGAEVKKPGSSVKVSCKASGYTFTDYEMHWVKQAPGHGLEWIGAIDPETGDTAYNQKFKGKATLTADTSTSTAYMELSSLRSEDTAVYYCTRYFSFAYWGQGTLVTVSS VL: EIVLTQSPATLSLSPGERATISCRSSQSLRHSVGNTYLQWYQQKPGQAPRLLIYKVSNRFSGVPARFSGSGSGTDFTLTISSLEPEDFAVYFCYQSKHVPYTFGGGTKVEIKR | – | – | – | – | – | – | – | – | – | – | – | – | – | – | fold increase in Kd from wild-type (human GPC3 on cells [16]): > 2 fold
5 | v38592 (M3-H18L6 with HC C-terminal lysine) (antibody, human IgG1, kappa, identical to v37574 but the cDNA of the heavy chains encodes a C-terminal lysine; also called M3-H18L6 (WT) mAb; wild-type M3-H18L6) heavy: not shown light: EIVLTQSPATLSLSPGERATISCRSSQSLRHSNGNTYLQWYQQKPGQAPRLLIYKVSNRFSGVPARFSGSGSGTDFTLTISSLEPEDFAVYFCYQSKHVPYTFGGGTKVEIKRTVAAPSVFIFPPSDEQLKSGTASVVCLLNNFYPREAKVQWKVDNALQSGNSQESVTEQDSKDSTYSLSSTLTLSKADYEKHKVYACEVTHQGLSSPVTKSFNRGEC | – | – | – | – | – | – | – | – | – | – | – | – | – | – | binding result (FcgR1A): binds
6 | v38592-MC-GGFG-AM-Compound 139, DAR 4 (antibody, human IgG1, kappa, MC-GGFG-AM-Compound 139 drug-linker on reduced cysteines, sites not stated; MC-GGFG-AM-Compound 139 drug-linker on reduced cysteines, sites not stated; DAR 4 for the whole antibody, antibody-drug conjugate) heavy: not shown light: EIVLTQSPATLSLSPGERATISCRSSQSLRHSNGNTYLQWYQQKPGQAPRLLIYKVSNRFSGVPARFSGSGSGTDFTLTISSLEPEDFAVYFCYQSKHVPYTFGGGTKVEIKRTVAAPSVFIFPPSDEQLKSGTASVVCLLNNFYPREAKVQWKVDNALQSGNSQESVTEQDSKDSTYSLSSTLTLSKADYEKHKVYACEVTHQGLSSPVTKSFNRGEC | – | – | – | – | – | – | – | – | – | – | – | – | – | – | EC50 (read off the curve) (human GPC3 on cells [17]): ~9 nM; EC50 (read off the curve) (human GPC3 on cells [18]): ~0.3 nM; EC50 (read off the curve) (human GPC3 on cells [19]): ~0.9 nM; EC50 (read off the curve) (human GPC3 on cells [20]): ~0.4 nM
